# Reference: patent publication US20050244416A1
# Biological target: melanoma-associated proteoglycan expressed on M21 and SKMel63 melanoma cells (UniProt Q6UVK1)
# Test: cell-based or functional assay
# Chain of UniProt Q6UVK1 (Q6UVK1 30-2322 limits assumed): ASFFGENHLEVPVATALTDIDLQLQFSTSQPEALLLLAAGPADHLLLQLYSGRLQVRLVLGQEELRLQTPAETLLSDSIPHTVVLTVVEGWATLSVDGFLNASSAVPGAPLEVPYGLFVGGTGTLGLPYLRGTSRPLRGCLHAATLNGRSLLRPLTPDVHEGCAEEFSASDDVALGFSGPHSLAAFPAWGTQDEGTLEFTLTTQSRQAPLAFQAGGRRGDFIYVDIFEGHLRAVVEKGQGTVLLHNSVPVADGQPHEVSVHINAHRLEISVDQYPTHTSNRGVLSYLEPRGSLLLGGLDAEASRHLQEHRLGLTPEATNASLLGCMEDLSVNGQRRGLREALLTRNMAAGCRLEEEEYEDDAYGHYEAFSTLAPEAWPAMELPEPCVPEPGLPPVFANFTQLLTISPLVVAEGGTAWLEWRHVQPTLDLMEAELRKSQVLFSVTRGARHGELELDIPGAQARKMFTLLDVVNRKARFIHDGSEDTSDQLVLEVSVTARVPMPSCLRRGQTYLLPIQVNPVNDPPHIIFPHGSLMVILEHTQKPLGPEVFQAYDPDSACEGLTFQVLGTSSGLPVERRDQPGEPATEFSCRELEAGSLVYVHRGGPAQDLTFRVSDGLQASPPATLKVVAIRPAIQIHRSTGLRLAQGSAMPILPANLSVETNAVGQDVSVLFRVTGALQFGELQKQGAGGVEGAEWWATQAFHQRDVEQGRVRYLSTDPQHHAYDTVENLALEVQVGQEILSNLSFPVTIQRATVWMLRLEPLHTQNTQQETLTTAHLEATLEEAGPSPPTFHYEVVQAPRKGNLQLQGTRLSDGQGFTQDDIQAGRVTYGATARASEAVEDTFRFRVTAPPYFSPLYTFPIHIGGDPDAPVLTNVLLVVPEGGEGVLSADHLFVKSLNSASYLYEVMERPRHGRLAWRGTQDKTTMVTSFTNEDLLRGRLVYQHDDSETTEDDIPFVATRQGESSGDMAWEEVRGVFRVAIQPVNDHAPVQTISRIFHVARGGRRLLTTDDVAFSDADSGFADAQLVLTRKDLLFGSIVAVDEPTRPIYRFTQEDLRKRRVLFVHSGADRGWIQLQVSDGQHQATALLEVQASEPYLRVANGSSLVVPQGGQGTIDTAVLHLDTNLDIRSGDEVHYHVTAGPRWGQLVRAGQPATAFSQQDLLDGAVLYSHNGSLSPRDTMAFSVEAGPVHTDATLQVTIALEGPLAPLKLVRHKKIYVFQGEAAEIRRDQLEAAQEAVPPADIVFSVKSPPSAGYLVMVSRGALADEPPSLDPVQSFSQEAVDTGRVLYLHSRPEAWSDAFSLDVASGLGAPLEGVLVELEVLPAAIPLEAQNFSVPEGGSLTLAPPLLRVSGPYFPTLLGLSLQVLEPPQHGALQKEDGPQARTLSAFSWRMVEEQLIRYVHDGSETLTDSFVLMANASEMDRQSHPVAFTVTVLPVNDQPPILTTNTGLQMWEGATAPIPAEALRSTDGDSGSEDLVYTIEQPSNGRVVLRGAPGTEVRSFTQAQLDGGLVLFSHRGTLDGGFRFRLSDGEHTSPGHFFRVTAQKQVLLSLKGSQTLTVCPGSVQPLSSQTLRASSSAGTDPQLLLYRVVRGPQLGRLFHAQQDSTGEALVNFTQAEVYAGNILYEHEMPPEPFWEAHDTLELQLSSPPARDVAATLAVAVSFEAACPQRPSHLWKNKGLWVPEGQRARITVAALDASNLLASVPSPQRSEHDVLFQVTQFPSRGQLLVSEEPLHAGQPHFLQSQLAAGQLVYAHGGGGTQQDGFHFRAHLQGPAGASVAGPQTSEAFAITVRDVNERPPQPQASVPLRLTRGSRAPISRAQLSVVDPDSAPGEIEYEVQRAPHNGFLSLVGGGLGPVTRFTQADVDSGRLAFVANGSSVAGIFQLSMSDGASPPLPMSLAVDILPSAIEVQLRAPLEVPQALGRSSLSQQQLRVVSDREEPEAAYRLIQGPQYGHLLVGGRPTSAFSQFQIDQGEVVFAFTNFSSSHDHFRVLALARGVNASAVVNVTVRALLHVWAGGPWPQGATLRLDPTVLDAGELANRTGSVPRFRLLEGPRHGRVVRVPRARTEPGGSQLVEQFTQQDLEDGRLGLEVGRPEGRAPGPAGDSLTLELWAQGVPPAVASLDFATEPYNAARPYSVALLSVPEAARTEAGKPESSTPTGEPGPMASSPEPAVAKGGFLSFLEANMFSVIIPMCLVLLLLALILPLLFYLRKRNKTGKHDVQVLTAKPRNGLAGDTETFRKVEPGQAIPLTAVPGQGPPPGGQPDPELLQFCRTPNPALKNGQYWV
substance,measurement,value
chemically hybridized bispecific F(ab')2 fragment with melanoma (9.2.27) and CD28 (9.3) specificity (cM28) (bispecific antibody),T cell proliferation (3H-thymidine uptake) of PBMC in the presence of irradiated SKMel63 cells,> 300 ng/mL
